The values that follow come from patent US6417168.

Assay [1] addresses human epidermal growth factor receptor (EGFR), full-length wild type (human) (UniProt P00533). The assay is described as follows: cell-based or functional assay.
The target of assay [2] is ΔEGFR, extracellular-deleted mutant human EGFR (EGFRvIII) (human) (UniProt P00533). The assay is described as follows: cell-based or functional assay.

Turning to “T691stop neu (truncated rat oncogenic p185neu, stop codon at amino acid 691, val→glu at amino acid 664) (from UniProt P06494 23-687) (receptor)”, in assay [1], the apoptosis of U87/T691 cells, serum deprivation combined with radiation (DAPI) came out at 33% and the inhibition of anchorage-independent growth in U87MG parental cells lacking ΔEGFR was found to be 75.2%. Further, in assay [2], the phosphorylation content of immunoprecipitated p155ΔEGFR monomers (scanning densitometry, PY-20 blot) stood at 33.7%; the soft agar growth of U87MG.ΔEGFR/T691s cells, reduction compared to U87MG.ΔEGFR cells came to 45%; the soft agar growth of U87MG.ΔEGFR/T691s cells, reduction compared to parental U87MG cells was found to be 41.3%.
For the substance “N757 (Nneu K757M, ATP-binding mutant of rat cellular p185) (from UniProt P06494 23-1257) (receptor)”, the EGF-induced down-regulation of cell surface EGFR (flow cytometry), maximum reduction in assay [1] was in the range of 20 to 25%.
In turn, “N691stop (truncated rat cellular p185, stop codon for Thr^691) (from UniProt P06494 23-690) (receptor)” registered an EGF-induced down-regulation of cell surface EGFR (flow cytometry), maximum reduction in assay [1] of 20 to 25%.
“wildtype cellular rat p185 (Nneu) (from UniProt P06494 23-1257) (receptor)”: in assay [1], the co-downregulation of cellular p185 with EGFR upon EGF treatment (flow cytometry, M1 cells) came out at 20%.
